Publication PMC6891902, “GLTSCR1 Negatively Regulates BRD4‐Dependent Transcription Elongation and Inhibits CRC Metastasis” (Advanced Science, 2019)

Target: T1, His-tagged BRD4 (1-470, BDs domain) (UniProt O60885 1-470)
T1 construct: BRD4, BDs domain (BD1 + BD2), aa 1-470; also called His-BRD4 (BD1 + BD2); pET-28a-His-BRD4 (1-470)
Test: pull-down; GST pull-down; purified GST-GLTSCR1 (1161-1361) incubated with purified His-tagged BRD4 fragment at 4 °C overnight; beads washed three times in lysis buffer (0.5% Triton-X100, 50 mM NaH2PO4, 300 mM NaCl); immunoblot
Settings: both partners purified

binding result: binds
B1: GST-GLTSCR1 (aa 1161-1361), BRD4 binding domain (BB domain) (domain or fragment, human, UniProt Q9NZM4 1161-1361, looked up)
chain: EESRRVSPSAEMVMIDRMFIQEEKTTLALDKQLAKEKPDEYVSSSRSLGLPIAASSEGHRLPGHGPLSSSAPGASTQPPPHLPTKLVIRHGGAGGSPSVTWARASSSLSSSSSSSSAASSLDADEDGPMPSRNRPPIKTYEARSRIGLKLKIKQEAGLSKVVHNTALDPVHQPPPPPATLKVAEPPPRPPPPPPPTGQMNG
notes: also called GST-tagged GLTSCR1 BB domain; source: E. coli BL21, purified (glutathione agarose beads)
